Source: the supplement of paper PMC12764529
± gives the half width of the 95% confidence interval.

How the values were obtained:
[1] = folding stability dG unfold (combined trypsin and chymotrypsin); higher = more stable
In short: (§1)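 Digests were run with trypsin and chymotrypsin at 11 concentrations in threefold dilutions, plus a no-protease condition, on designed mini-proteins in a PA-tagged cDNA display construct. The mini-proteins were under 80 residues, had no cysteine, and were kept only when AlphaFold2 dimer inter-PAE was above 15. After sequencing, Bayesian fitting of the counts gave K50, from which unfolding free energy was derived against a sequence-predicted unfolded-state K50 and a shared folded-state K50, per protease or combined.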

[2] = folding stability dG unfold from trypsin proteolysis; higher = more stable
In short: as §1

[3] = folding stability dG unfold from chymotrypsin proteolysis; higher = more stable
In short: as §1

Sequence | folding stability dG unfold [1] [kcal/mol] | folding stability dG unfold [2] [kcal/mol] | folding stability dG unfold [3] [kcal/mol]
SMRKVKRKVTLEITIKVPESVLKPIPDADYYTYPFDDKLVKPDAVIPRTVTITGPYTEEEVEKLVKEILSSA [r9_165_JUSTAS] | 0.249 ± 0.25 | 0.749 ± 0.2 | -0.613 ± 0.48
SMRVTIMIPVPPGLKNLKLEFKLPYPDGREVDVDIQVDPNYITITVEMNNPGQMDWVQERFQEEIEKLLGSA [r9_790_TrROS] | 3.64 ± 0.16 | 3.24 ± 0.1 | 4.09 ± 0.15
SMSMEEAMEWAEENPDRPVIFINPEDWYIMIYNPKKGKMEMRPITSPEEALEELDDENIDRIYIVPADEISA [r9_775_TrROS] | 1.96 ± 0.088 | 1.21 ± 0.064 | 2.31 ± 0.061
SMSPEALKKANEFAEYIAEHFKNWNIEIDVEVEWDPDGEITIRAKIEMRPPPPPPPKPKRDPNGKWKWEGSA [r9_82_TrROS] | 1.84 ± 0.51 | 0.943 ± 0.079 | 2.3 ± 0.23
SMSREELREYARAHPDRPLALILPGKKTLLLFDPATGAEREEDITSVEEAKERLAAQPVAVVEVVSAELLSA [r9_775_JUSTAS] | 0.294 ± 0.11 | -0.439 ± 0.37 | 0.499 ± 0.085
SMSTNLVVKEKLIPPGVLVVTYKKDGKPVKVETKVVVIPPQLVVEEVLYPGGKLALKTYDPLTGTPSFELSA [r9_343_JUSTAS] | 0.337 ± 0.29 | -0.122 ± 0.14 | 0.644 ± 0.28
SMSVEISVPPTNPGASPEEIAAALAAKGRPVEVVSVSEDPSTGTRTVTIAVRAPDGTLEETVVVNAPVGVSA [r9_879_JUSTAS] | 0.0853 ± 0.12 | 0.495 ± 0.057 | -0.772 ± 0.33
SMSYTVTVEYPDTGKTTTTPIPPDALEVSVSLSGPSTIRITITTDVNGATTTTTSTVTLPPPALPPSTLLSA [r9_1067_JUSTAS] | 1.06 ± 0.22 | 1.11 ± 0.097 | 0.927 ± 0.28
SMTAEEIAERLARALEEAGIRRVEVEVTVEYDPETDEVTVTVTIRVEPAPEAPPEEEEERREREEREAEESA [r9_440_TrROS_Hall] | 2.31 ± 0.11 | 2.26 ± 0.057 | 2.43 ± 0.09
SMTAEVTLTIVYPDGTSTTLPMTFPADDPEALRAAIRAAVAAAGYTPTALQMTFTAQPDGSVRVDVTVTVAS [r1_281_JUSTAS] | 5.61 ± 0.077 | 4.1 ± 0.059 | 5.7 ± 0.066
SMTFVLPYPKEGKTITVTYPDLESAVSSSGVATFQDPALLAQVIAALPSSVIVKEIKKNPDGTYTLTVAASA [r9_997_JUSTAS] | 0.483 ± 0.1 | 0.773 ± 0.043 | -0.066 ± 0.24
SMTIEIEVDGKTVTVEIDPKTGKIKKVVVKDKETGEWKELSDEEIEKLLKELEDELREKREKLEKEGKEPSA [r9_368_TrROS_Hall] | 2.53 ± 0.25 | 2.32 ± 0.24 | 2.5 ± 0.18
SMTIERHPDKLTVRVPAAFSTVPEVVRFLKELGFELPPGVKDVRVEDVEPGARVVRVTVHFDDPEALERLSA [r9_820_TrMRF] | 1.81 ± 0.031 | 1.97 ± 0.024 | 1.58 ± 0.049
SMTITIERPVPPELTDRPLSLELPLPNGSTVSVKVETSPTTATVTITTNDPSLEAEVKARVEELLARLLASA [r9_790_JUSTAS] | 2.27 ± 0.1 | 2.56 ± 0.094 | 2.058 ± 0.02
SMTLEEAKEIAEKNPDIPVALIFPGKKLIYIYHPKSGKWEVKPVTSIEEAIEALEKEDIDAIFIVPAELDSA [r9_775_TrMRF] | 4.06 ± 0.16 | 4.54 ± 0.44 | 3.93 ± 0.087
SMTLITLTDPVTNVPVEKVEVRKLEDGTYEATVTTKEPSKTTTKTYPLPPDEKITDVLKSLGLKEAEINLSA [r9_492_JUSTAS] | 0.445 ± 0.17 | 0.255 ± 0.036 | 0.538 ± 0.093
SMTLPANAKAKVTVLVLFYDPETGEATLVKVDYTATFKPDDKGNLVVEVEPSKIEFIGPISLEEAKKIAGSA [r9_423_TrMRF] | 2.55 ± 0.21 | 2.57 ± 0.15 | 2.11 ± 0.058
SMTLTIDLDPSVPYLVRIHFVNEDGEPYEADALTTRTPDGTAFVDIALPDDSIPPGADIKILSVEVIPLDSA [r9_359_TrMRF] | 1.96 ± 0.051 | 1.63 ± 0.019 | 2.1 ± 0.054
SMTPEEARALAEAIAAERAAAGYATEMELTVTPVNGVPVATFRFRFTDAAGRATEFTVTVAPDGTVTFTPSA [r9_1027_JUSTAS] | 3.64 ± 0.08 | 3.34 ± 0.089 | 3.814 ± 0.031
SMTTRESTIDASIPGYTVSKVSVTTLPGGERKITITLPSGKVLVLSTPADPALVPLTVTSEFSPEEVAAKSA [r9_1075_JUSTAS] | 0.395 ± 0.051 | 0.634 ± 0.057 | 0.0702 ± 0.097
SMTVSNPRGKTVTVTVTVTVDPNKKSVTVPVTIRTAGEELTFTFTVPKGVNKPVTFSLTVPLPPGSSVISSA [r9_973_JUSTAS] | 3.63 ± 0.089 | 3 ± 0.093 | 4.02 ± 0.059

Sequence | folding stability dG unfold [1] [kcal/mol] | folding stability dG unfold [2] [kcal/mol] | folding stability dG unfold [3] [kcal/mol]
SMTVVIDIPPEVPVPGSGSVRPVPVEEVLKRVEEAMAKGKKVVVTGRDPKHPLVQEVAARLEELGVEVVGSA [r9_468_JUSTAS] | 0.59 ± 0.054 | 0.342 ± 0.029 | 0.71 ± 0.016
SMVEKLPDGTTVIKGELPLDVSIEDVLAKLPDLKLASRTSETDPATGKRYYTFIVKPDGTVDVTSEPKLLSA [r9_238_JUSTAS] | 0.957 ± 0.045 | 0.645 ± 0.027 | 1.21 ± 0.091
SMVFTLPGGIEIKVEPEEDSYRFVIELPSGERLEVPVPPENLEEFIRELIRKALEIANPNITEEEIEKLASA [r9_634_TrMRF] | 3.59 ± 0.29 | 3.22 ± 0.26 | 4.02 ± 0.09
SMVIEPKPDGTVTVTLPSSLPDLPREEVEAIVREALPPGASLGDSITVSRDPETGEVTVTAPVKFPPELASA [r9_1011_JUSTAS] | 1.03 ± 0.084 | 1.55 ± 0.076 | 0.544 ± 0.025
SMVIPPGSRAEFRLEDVPVRLEVEEGSGKVHFRVFSPENPDEEVFEAEFDINDLKPLDLPPELREAFEKESA [r9_1051_TrMRF] | 0.955 ± 0.18 | 0.652 ± 0.057 | 1.18 ± 0.32
SMVITLPVEDEEKLKELLDELKEQLEKAEEEGLETVTITITLEDGETLEITIDKNMTVEELLEQLEKALESA [r9_127_TrROS_Hall] | 2.61 ± 0.29 | 3.22 ± 0.33 | 1.57 ± 0.12
SMVKIYFPNAPPELVAEAIEKHPDSTVEIYFEPGKPDVFESILKDYDVEVEPFPTEDGRLLVKARVKVPGSA [r9_1138_TrMRF] | 1.74 ± 0.29 | 2.11 ± 0.13 | 1.32 ± 0.12
SMVVIEVEPNPETNSLTAKVYLPKDGKKVVEIERSPDGTVKVTVYYKDGSKEEFTFPEDIPIEEAIKKAISA [r9_346_TrMRF] | 1.15 ± 0.095 | 1.16 ± 0.037 | 1.1 ± 0.13
SMVVPVLIEKPYTSPEELEEFKKEAEELVKKLAEETGYPIKVLETKYTTDPNTNVVSLTLVVEIVSPELNSA [r9_105_JUSTAS] | 2.45 ± 0.17 | 1.97 ± 0.1 | 2.6 ± 0.14
SMVYVFEVPEGDPEKAEELIRAKLEEEFGYKVESVATPGGGGARVVLVVDPVEDKAYAEVIPFAPDGSPASA [r9_173_TrMRF] | 0.618 ± 0.16 | -0.529 ± 0.21 | 1.15 ± 0.2
SMYTTVTVEVDITLADKTPDGTWTPVGTFPIKVTVTVPESRPEEAREEALARARAEVEAFAASRGLTVVVSA [r9_356_JUSTAS] | 2.07 ± 0.079 | 1.76 ± 0.043 | 2.21 ± 0.043
SMYYLVTITVTIRKDGKPVSVTPIYLAVPPEKAEEVAAEIKKSHPDLEVTITMEVTEVSEDDEEVKELLKSA [r9_782_JUSTAS] | 2.79 ± 0.19 | 1.92 ± 0.13 | 3.36 ± 0.085
SNEPPVIEIKFRIDEVQPMNGQPMIMFEITEIEDAPPEIQDLLKNGYYIMIHMPPGEPLKEGEEFEIHIFSA [r9_557_TrROS] | 2.01 ± 0.3 | 1.34 ± 0.09 | 2.75 ± 0.12
SNKIDKRIVSVTFYESLPNGSVKVNNLVFISTSDGKVRLVNAGEITIPLGDKTLSINIGEASSNVKLGKISA [r9_1113_TrMRF] | 1.37 ± 0.041 | 1.01 ± 0.034 | 1.52 ± 0.032
SNKKWRTIELDFWFRTPEQAREWANNLARRLPPDNIDSISVEVEPFPVRKNGEPVGPVYRFKLTIMVRPESA [r9_605_TrROS] | 2.6 ± 0.091 | 2.33 ± 0.062 | 2.82 ± 0.032
SNLMIHFENPDNGVRVMIQINPEHGRIKLSVMYPNGKPVAEQTIEVDPNKIRLRFKVGGRKFEIEIEIPESA [r9_385_TrROS] | 5.62 ± 0.54 | 4.32 ± 0.19 | 5.6 ± 0.29
SNNKRITIEIPFPMPAEQARNFMEAFGIKKIEYEKHDDPGYYRVKYTVPDDNVTIDIHIFPPPVPPGQKPSA [r9_1090_TrROS] | 1.67 ± 0.13 | 1.23 ± 0.024 | 1.83 ± 0.15
SNPNEPLTAEEIAKHIEEFMQEEHGIDKIKPEEFTVNPPDGYIKVEMEIEHKNPPGQKHKIDIWIPPDDLSA [r9_1002_TrROS] | < -1 | 0.0662 ± 0.22 | 0.0346 ± 0.14
SNWITLKHTIKHPGREIKIEITAQPNPGGPYWIQVNIEVRDPNGEKEEVEITVPFRGMSIEDFLKNAADASA [r9_217_TrROS] | 3.78 ± 0.29 | 2.85 ± 0.12 | 4.46 ± 0.062
SPAGELVSSTFPVTVTVTVWRRLPDGTWTPVGTETFTVTVTVAGIPEEVAEALRKAAETPPPPPNLAGLLSA [r9_1192_TrMRF] | 1.93 ± 0.054 | 1.98 ± 0.028 | 1.82 ± 0.049
SPEIKIEVFKNEDGEEIFIKIEVPPGWRIRIIYNGKEIEEIEVDGYRIRFEEVDGKLRIEVEPLPPGEKPSA [r9_221_TrROS_Hall] | 5.2 ± 0.27 | 3.87 ± 0.081 | 5.48 ± 0.15
